Consider 18 sequences from the supplement of paper PMC12764529.

± gives the half width of the 95% confidence interval.

The nature of series [1]: folding stability dG unfold from trypsin proteolysis; higher = more stable. The procedure, abridged:
(§1)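 K50 was inferred by Bayesian fitting of sequencing counts obtained after protease digestion of designed mini-proteins. Unfolding free energy was derived by comparison with a sequence-predicted unfolded-state K50 and a shared folded-state K50, for each protease or both combined. The mini-proteins were under 80 residues, had no cysteine, were carried in a PA-tagged cDNA display construct, and were kept only if AlphaFold2 dimer inter-PAE exceeded 15.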

The nature of series [2]: folding stability dG unfold (combined trypsin and chymotrypsin); higher = more stable. The procedure, abridged: as §1
Series [3] in a line: folding stability dG unfold from chymotrypsin proteolysis; higher = more stable. The procedure, abridged: as §1

Take “SAGGSASPAVSSEEEVEALVEELRKKGYEVLSVERTEIPGEDVTDYTIPIRDPSNGKLSTLTLTAGSAGGSA [r15_123_JUSTAS]”: the “folding stability dG unfold” value in series [1] came to 0.508 ± 0.037 kcal/mol; in series [2], 0.585 ± 0.12 kcal/mol; in series [3], 0.538 ± 0.15 kcal/mol.

Consider “SAGGSASSMPVTLTLLLTRPDGTPLTLPFEAETLEEAIERGTALAQELIAELGDPNMKITGLEVVPSAGGSA [r15_698_JUSTAS]”, for which the “folding stability dG unfold” value in series [1] was 0.904 ± 0.067 kcal/mol; in series [2] it was 1.22 ± 0.1 kcal/mol; in series [3] it was 1.44 ± 0.092 kcal/mol.

On to “SAGGSASSSLEVEVTAESPDPETGELRVTAVITTTYFDPSTGSTSTTTTTLTLTPEELAALVAALSSAGGSA [r2_357_JUSTAS]”, for which the results for the “folding stability dG unfold” value in series [1], in series [2] and in series [3] were 3.92 ± 0.071 kcal/mol, 4.332 ± 0.043 kcal/mol and 4.35 ± 0.049 kcal/mol, respectively.

Regarding “SAGGSASTVTRTRTIPGSGLTVEITETPLPDGTYSYTVTFYAPDSALKTTPKTAAPDELPEEELLSSAGGSA [r15_147_JUSTAS]”, the results for the “folding stability dG unfold” value in series [1], in series [2] and in series [3] were 0.35 ± 0.049 kcal/mol, 1.1 ± 0.06 kcal/mol and 1.48 ± 0.042 kcal/mol, respectively.

On to “SAGGSASVEIIFDPNKPTVTIYVPGPVDPNEPITLTLPGGPSLTITEIEVEKIGKEYVVKAKVTKLSAGGSA [r15_838_JUSTAS]”, for which the “folding stability dG unfold” value in series [1] amounted to 1.14 ± 0.04 kcal/mol; in series [2], 1.8 ± 0.051 kcal/mol; in series [3] it was 2.12 ± 0.03 kcal/mol.

As for “SAGGSASVEVSVEEKDGTLTVTVTVEVDGKLVTVTVTLTLPPPPPLSAEELEKAREAEKEGKTVEVSAGGSA [r15_631_TrROS_Hall]”, the “folding stability dG unfold” value turned out to be 1.24 ± 0.12 kcal/mol in series [1], 2.49 ± 0.11 kcal/mol in series [2] and 2.77 ± 0.16 kcal/mol in series [3].

On to “SAGGSASVKVEETVEFLPGGVVKTTTRTFFPDGTVTTTDTVTALPPVPVYDISSPENLSPALERLASAGGSA [r15_1018_JUSTAS]”, for which the “folding stability dG unfold” value in series [1] was found to be 0.543 ± 0.028 kcal/mol; in series [2], 0.909 ± 0.052 kcal/mol; in series [3], 1.16 ± 0.026 kcal/mol.

Regarding “SAGGSASVTRMIQIPPGDPNMSIEEAIEKIKIYLPNGKPVTIEIDRIWPDPNRYFFMITIKDGKPVSAGGSA [r15_331_TrROS]”, the entries for the “folding stability dG unfold” value in series [1], in series [2] and in series [3] were 1.21 ± 0.088 kcal/mol, 1.86 ± 0.15 kcal/mol and 2.28 ± 0.13 kcal/mol, respectively.

For “SAGGSATIEEIANMPAEEIAQEHGMEVKDVDIERVPNGTITVEVEYEPPDGKKHKHTFQIKIDEGQSAGGSA [r15_805_TrROS]”, the “folding stability dG unfold” value in series [1] was determined as 0.089 ± 0.1 kcal/mol; in series [2], 0.284 ± 0.2 kcal/mol; in series [3] it was 0.251 ± 0.11 kcal/mol.

Take “SAGGSATLTLPEDVVKEVFTAKVGDKEYRPVVFRSPDDEWVLVLVLRRDPNGNTSAVAALLPKDAVSAGGSA [r15_986_TrMRF]”: the “folding stability dG unfold” value in series [1] came to 1.49 ± 0.047 kcal/mol; in series [2], 1.64 ± 0.13 kcal/mol; in series [3], 1.8 ± 0.16 kcal/mol.

Consider “SAGGSATSIEYESPGVVETVSFTREPDGTLTVTVTVREPNGPVLKTLPTTETLPPDAGVTASVPLPSAGGSA [r15_950_JUSTAS]”, for which the “folding stability dG unfold” value in series [1] amounted to 0.0919 ± 0.16 kcal/mol; in series [2] it was 0.529 ± 0.18 kcal/mol; in series [3], 0.921 ± 0.13 kcal/mol.

Turning to “SAGGSATVEVATEPDGTVTVTTLETDPAEPRGTVTTTTVTVTTEPTPEPFLSSSTTTTTTATAPAPSAGGSA [r15_438_JUSTAS]”, the “folding stability dG unfold” value was 0.138 ± 0.048 kcal/mol in series [1], -0.0573 ± 0.059 kcal/mol in series [2] and -0.291 ± 0.075 kcal/mol in series [3].

On to “SAGGSAVILIPIPPDDPNFWEMIKDFQEEGKPVIIRNPEGEWMVFKPNGPVKPVDSPEQLLEAGITSAGGSA [r15_94_TrROS]”, for which the “folding stability dG unfold” value in series [1] is 1.03 ± 0.074 kcal/mol; in series [2] it was 1.04 ± 0.18 kcal/mol; in series [3], 0.994 ± 0.16 kcal/mol.

For the sequence “SAGGSAVPTVRATFRYPDGLVAELEVPVLPDGTPRVVLRVGGVEREVSLEELARLPPEFELVSVDPSAGGSA [r2_431_TrMRF]”, the “folding stability dG unfold” value in series [1] was 0.517 ± 0.073 kcal/mol; in series [2], 0.826 ± 0.072 kcal/mol; in series [3], 0.996 ± 0.087 kcal/mol.

Turning to “SAGGSAVTVVTVELTSPGSTHTITIPASEVEGLSLEEIEARLKALPEVSEITLTRSELPPLNPSLASAGGSA [r2_282_JUSTAS]”, the “folding stability dG unfold” value is 0.788 ± 0.042 kcal/mol in series [1], 0.802 ± 0.046 kcal/mol in series [2] and 0.752 ± 0.012 kcal/mol in series [3].

In the case of “SAGGSAWEFVKEIAKELQEKHPGYQVNVDVEPQRNPENDRRYIRIWIHVQDKNGEIRRTWEIMIPFSAGGSA [r15_1048_TrROS]”, the “folding stability dG unfold” value in series [1] was determined as 3.22 ± 0.053 kcal/mol; in series [2] it was 3.44 ± 0.12 kcal/mol; in series [3], 3.461 ± 0.018 kcal/mol.

Turning to “SAGGSAWMTLEEFIKEAAKNFPPGREKEIWIRHPGYVFKIDIRVTGPGQVKIKIDKIVPFPDGEPISAGGSA [r15_150_TrROS]”, the “folding stability dG unfold” value turned out to be 2.12 ± 0.067 kcal/mol in series [1], 2.55 ± 0.11 kcal/mol in series [2] and 2.88 ± 0.046 kcal/mol in series [3].

With “SAGGSDKLYIRNPDHTIEIDEVKEPPDGEKYVRIRHEPPDGKEKEHEFPPDELADKFGLPPDNIEISAGGSA [r2_262_TrROS]”, the “folding stability dG unfold” value is 0.32 ± 0.35 kcal/mol in series [1], -0.101 ± 0.56 kcal/mol in series [2] and -0.217 ± 0.79 kcal/mol in series [3].
